Here are results for one molecule from patent publication US20250277767A1 (RAMOT AT TEL AVIV UNIVERSITY, published 2025).

Assay [1] has as its target T1, EspB of Citrobacter rodentium (Citrobacter rodentium DBS100).
T1 construct: also called C. rodentium EspB
As to the kind of experiment: western blot of culture supernatants, detection with mAb-EspB-B7. For orientation: A western blot detects proteins with antibodies after separation by electrophoresis.

Assay [2] has as its target T2, native EspB of wild-type EPEC.
T2 construct: also called EspB in the assembled T3SS; WT EPEC
The description is as above.

B1: mAb-EspB-B7 (antibody, V domains shown)
VH: EVQLLESGGGLVQPGGSLRLSCAASGFTFSHYAMNWVRQAPGKGLEWVSAINSNGDSTYYPDTVKDRFTISRDNSKNTLYLQMNSLRAEDTAVYYCARDRRAGYFDYWGQGTLVTVSS
VL: DIVLTQPPSASGTPGQRVTISCSGSRDNIGKNYVSWYQQLPGTAPKLLIYRNNQRPSGVPDRFSGSKSGTSASLAISGLRSEDEADYYCSAWDTSLNAYVFGPGTQLTVL
notes: also called mAb-B7; EspB-specific monoclonal antibody
Regarding B1, the binding result in assay [1] and in assay [2] was “binds” each time.
